From IntAct's records for PubMed 28325809

B1: ADP-ribosylation factor-like protein 8B (Homo sapiens), Q9NVJ2 (parent)
chain: MLALISRLLDWFRSLFWKEEMELTLVGLQYSGKTTFVNVIASGQFSEDMIPTVGFNMRKVTKGNVTIKIWDIGGQPRFRSMWERYCRGVNAIVYMIDAADREKIEASRNELHNLLDKPQLQGIPVLVLGNKRDLPNALDEKQLIEKMNLSAIQDREICCYSISCKEKDNIDITLQWLIQHSKSRRS
B2: Pleckstrin homology domain-containing family M member 1 (Homo sapiens), Q9Y4G2 (parent)
chain: MLSVVENGLDPQAAIPVIKKKLVGSVKALQKQYVSLDTVVTSEDGDANTMCSALEAVFIHGLHAKHIRAEAGGKRKKSAHQKPLPQPVFWPLLKAVTHKHIISELEHLTFVNTDVGRCRAWLRLALNDGLMECYLKLLLQEQARLHEYYQPTALLRDAEEGEFLLSFLQGLTSLSFELSYKSAILNEWTLTPLALSGLCPLSELDPLSTSGAELQRKESLDSISHSSGSEDIEVHHSGHKIRRNQKLTASSLSLDTASSSQLSCSLNSDSCLLQENGSKSPDHCEEPMSCDSDLGTANAEDSDRSLQEVLLEFSKAQVNSVPTNGLSQETEIPTPQASLSLHGLNTSTYLHCEAPAEPLPAQAASGTQDGVHVQEPRPQAPSPLDLQQPVESTSGQQPSSTVSETAREVGQGNGLQKAQAHDGAGLKLVVSSPTSPKNKSWISEDDFYRPSREQPLESASDHPIASYRGTPGSRPGLHRHFSQEPRKNCSLGALDQACVPSPGRRQAQAAPSQGHKSFRVVHRRQMGLSNPFRGLMKLGTVERRGAMGIWKELFCELSPLEFRLYLSNEEHTCVENCSLLRCESVGPAHSDGRFELVFSGKKLALRASSQDEAEDWLDRVREALQKVRPQQEDEWVNVQYPDQPEEPPEAPQGCLSPSDLLSEPAALQGTQFDWSSAQVPEPDAIKESLLYLYMDRTWMPYIFSLSLEALKCFRIRNNEKMLSDSHGVETIRDILPDTSLGGPSFFKIITAKAVLKLQAGNAEEAALWRDLVRKVLASYLETAEEAVTLGGSLDENCQEVLKFATRENGFLLQYLVAIPMEKGLDSQGCFCAGCSRQIGFSFVRPKLCAFSGLYYCDICHQDDASVIPARIIHNWDLTKRPICRQALKFLTQIRAQPLINLQMVNASLYEHVERMHLIGRRREQLKLLGDYLGLCRSGALKELSKRLNHRNYLLESPHRFSVADLQQIADGVYEGFLKALIEFASQHVYHCDLCTQRGFICQICQHHDIIFPFEFDTTVRCAECKTVFHQSCQAVVKKGCPRCARRRKYQEQNIFA

Assays:
[1] = variants of: B1; conditions: with pkhm1_human PLEKHM1, Q9Y4G2
[2] = variants of: B2; conditions: with arl8b_human ARL8B
[3] = variants of: B2; conditions: with rab7a_human RAB7A
[4] = variants of: B2; conditions: with arl8b_human ARL8B; remark: listed apart in the source
[5] = variants of: B2; conditions: with mlp3b_human MAP1LC3B
[6] = variants of: B2; conditions: with mlp3b_rat Map1lc3b

Row | Variant | effect of a mutation on the interaction [1] | effect of a mutation on the interaction [2] | effect of a mutation on the interaction [3] | effect of a mutation on the interaction [4] | effect of a mutation on the interaction [5] | effect of a mutation on the interaction [6]
1 | T34N | disrupting interaction strength |  |  |  |  | 
2 | H60A |  | disrupting interaction strength | with no effect | decreasing interaction strength |  | 
3 | H60A;R117A;R119A |  | disrupting interaction strength | with no effect | decreasing interaction strength | disrupting interaction strength | disrupting interaction strength

Next, values leading:

Row | effect of a mutation on the interaction [1] | effect of a mutation on the interaction [2] | effect of a mutation on the interaction [3] | effect of a mutation on the interaction [4] | effect of a mutation on the interaction [5] | effect of a mutation on the interaction [6] | Variant
4 | with no effect |  |  |  |  |  | MLALISRLLDWFRSLFWKEEMELTLVGLQYSGKTTFVNVIASGQFSEDMIPTVGFNMRKVTKGNVTIKIWDIGGLPRFRSMWERYCRGVNAIVYMIDAADREKIEASRNELHNLLDKPQLQGIPVLVLGNKRDLPNALDEKQLIEKMNLSAIQDREICCYSISCKEKDNIDITLQWLIQHSKSRRS [Q75L]
5 |  | disrupting interaction strength | with no effect | decreasing interaction strength |  |  | R117A;R119A
6 |  | disrupting interaction strength | with no effect | with no effect |  |  | H63A
7 |  | disrupting interaction strength | with no effect |  |  |  | R123A
